Tests used:
[1] = molecular target: T1, OXA-830 (Aeromonas simiae, UniProt A0A5K1KBV9); test: inhibition of benzylpenicillin hydrolysis, UV-VIS spectrophotometry; assay type: biochemical
T1 construct: gene blaOXA; predicted signal peptide cleavage 22/23

[2] = tested on: CO[C@@]1(NC(=O)Cc2cccs2)C(=O)N2C(C(=O)O)=C(COC(N)=O)CS[C@@H]21; test: initial hydrolysis rates, UV-VIS spectrophotometry, Michaelis-Menten fit; assay type: biochemical, Aeromonas simiae; details: 10 mM phosphate buffer pH 7.0, 30°C
Source text: (§1) initial hydrolysis rates, UV-VIS spectrophotometry, Michaelis-Menten fit on OXA-830

[3] = tested on: CCN1CCN(C(=O)N[C@@H](C(=O)N[C@@H]2C(=O)N3[C@@H]2SC(C)(C)[C@@H]3C(=O)O)c2ccccc2)C(=O)C1=O; test: as above; assay type: biochemical, Aeromonas simiae; details: 10 mM phosphate buffer pH 7.0, 30°C
Source text: as §1

[4] = tested on: Cc1onc(-c2ccccc2Cl)c1C(=O)N[C@@H]1C(=O)N2[C@@H]1SC(C)(C)[C@@H]2C(=O)O; test: as above; assay type: biochemical, Aeromonas simiae; details: 10 mM phosphate buffer pH 7.0, 30°C
Source text: as §1

[5] = tested on: CC1(C)S[C@@H]2[C@H](NC(=O)[C@H](C(=O)O)c3ccsc3)C(=O)N2[C@H]1C(=O)O; test: as above; assay type: biochemical, Aeromonas simiae; details: 10 mM phosphate buffer pH 7.0, 30°C
Source text: as §1

[6] = tested on: CC1(C)S[C@@H]2[C@H](NC(=O)Cc3ccccc3)C(=O)N2[C@H]1C(=O)O; test: as above; assay type: biochemical, Aeromonas simiae; details: 10 mM phosphate buffer pH 7.0, 30°C
Source text: as §1

[7] = tested on: CC1(C)S[C@@H]2[C@H](NC(=O)[C@H](N)c3ccccc3)C(=O)N2[C@H]1C(=O)O; test: as above; assay type: biochemical, Aeromonas simiae; details: 10 mM phosphate buffer pH 7.0, 30°C
Source text: as §1

[8] = tested on: Cc1onc(-c2ccccc2)c1C(=O)N[C@@H]1C(=O)N2[C@@H]1SC(C)(C)[C@@H]2C(=O)O; test: as above; assay type: biochemical, Aeromonas simiae; details: 10 mM phosphate buffer pH 7.0, 30°C
Source text: as §1

[9] = tested on: CC(C)(O/N=C(\C(=O)N[C@@H]1C(=O)N2C(C(=O)[O-])=C(C[n+]3ccccc3)CS[C@H]12)c1csc(N)n1)C(=O)O; test: as above; assay type: biochemical, Aeromonas simiae; details: 10 mM phosphate buffer pH 7.0, 30°C
Source text: as §1

[10] = tested on: Cc1nnc(SCC2=C(C(=O)O)N3C(=O)[C@@H](NC(=O)Cn4cnnn4)[C@H]3SC2)s1; test: as above; assay type: biochemical, Aeromonas simiae; details: 10 mM phosphate buffer pH 7.0, 30°C
Source text: as §1

T1 sequence (A0A5K1KBV9 entry or part of it): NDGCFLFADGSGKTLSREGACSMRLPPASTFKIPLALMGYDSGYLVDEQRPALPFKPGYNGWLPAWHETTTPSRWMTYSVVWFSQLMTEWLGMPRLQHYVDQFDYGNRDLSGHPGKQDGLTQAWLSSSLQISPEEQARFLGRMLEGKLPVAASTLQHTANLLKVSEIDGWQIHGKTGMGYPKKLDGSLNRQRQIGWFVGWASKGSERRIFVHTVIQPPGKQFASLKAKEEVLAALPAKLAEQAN

O=C(O)[C@H]1/C(=C/CO)O[C@@H]2CC(=O)N21 [clavulanic acid]
IC50 [1]: 260 ± 20 nM

CC1(C)[C@H](C(=O)O)N2C(=O)C[C@H]2S1(=O)=O [sulbactam]
IC50 [1]: 50 ± 10 nM

C[C@]1(Cn2ccnn2)[C@H](C(=O)O)N2C(=O)C[C@H]2S1(=O)=O [tazobactam]
IC50 [1]: 70 ± 20 nM

OXA-830 (Aeromonas simiae)
Km [2]: 76 µM | kcat [2]: 2.79 s⁻¹ | kcat/Km [2]: 37000 M⁻¹ s⁻¹ | Km [3]: 233 µM | kcat [3]: 413 s⁻¹ | kcat/Km [3]: 1.77e+06 M⁻¹ s⁻¹ | Km [4]: 737 µM | kcat [4]: 1030 s⁻¹ | kcat/Km [4]: 1.4e+06 M⁻¹ s⁻¹ | Km [5]: 208 µM | kcat [5]: 227 s⁻¹ | kcat/Km [5]: 1.09e+06 M⁻¹ s⁻¹ | Km [6]: 540 µM | kcat [6]: 527 s⁻¹ | kcat/Km [6]: 980000 M⁻¹ s⁻¹ | Km [7]: 188 µM | kcat [7]: 444 s⁻¹ | kcat/Km [7]: 2.36e+06 M⁻¹ s⁻¹ | Km [8]: 722 µM | kcat [8]: 1240 s⁻¹ | kcat/Km [8]: 1.72e+06 M⁻¹ s⁻¹ | Km [9]: 61 µM | kcat [9]: 2.04 s⁻¹ | kcat/Km [9]: 33000 M⁻¹ s⁻¹ | Km [10]: 975 µM | kcat [10]: 715 s⁻¹ | kcat/Km [10]: 730000 M⁻¹ s⁻¹
